Results taken from paper PMC12319226 (Frontiers in Bioinformatics, 2025).
Numbering of substitutions follows the chain as printed.

T1: fHbp m001768 (Neisseria meningitidis, engineered fHbp …, point mutant)
T1 chain: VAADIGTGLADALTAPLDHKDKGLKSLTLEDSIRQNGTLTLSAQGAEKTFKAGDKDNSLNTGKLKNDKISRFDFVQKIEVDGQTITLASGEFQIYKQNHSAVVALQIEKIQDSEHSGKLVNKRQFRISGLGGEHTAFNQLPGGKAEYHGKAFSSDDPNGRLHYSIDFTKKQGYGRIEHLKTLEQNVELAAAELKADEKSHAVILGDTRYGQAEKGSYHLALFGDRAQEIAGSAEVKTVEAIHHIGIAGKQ

T2: fHbp m001720 (Neisseria meningitidis, engineered fHbp …, point mutant)
T2 chain: T1 chain with Y209L, G210N, Q211G, T237I, E239V

T3: fHbp m002414 (Neisseria meningitidis fHbp v3.28, …, chimera)
T3 chain: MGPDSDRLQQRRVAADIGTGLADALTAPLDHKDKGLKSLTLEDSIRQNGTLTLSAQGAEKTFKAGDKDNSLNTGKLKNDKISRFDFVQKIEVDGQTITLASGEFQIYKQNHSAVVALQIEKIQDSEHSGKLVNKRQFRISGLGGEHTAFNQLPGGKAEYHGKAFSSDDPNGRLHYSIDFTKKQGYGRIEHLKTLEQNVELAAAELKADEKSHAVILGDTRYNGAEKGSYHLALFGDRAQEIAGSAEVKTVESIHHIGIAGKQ

T4: fHbp m002256 (Neisseria meningitidis, engineered fHbp …, chimera)
T4 chain: T1 chain with G210N, E239N

T5: fHbp m002336 (Neisseria meningitidis fHbp v3.28, …, chimera)
T5 chain: T3 chain with G223S, E251N

T6: fHbp m001177 (Neisseria meningitidis fHbp v3.28-based …, point mutant)
T6 chain: T3 chain with Y221L, N222G, T249S, E251N, S252A

T7: fHbp m002404 (Neisseria meningitidis fHbp v3.28, …, chimera)
T7 chain: T3 chain with V250G, S252G

T8: fHbp m001672 (Neisseria meningitidis, fHbp …, point mutant)
T8 chain: T3 chain with Y221L, T249S, V250D, E251N, S252A

T9: fHbp m002281 (Neisseria meningitidis, engineered fHbp …, chimera)
T9 chain: T1 chain with G210N, T237I, E239N, A240G

B1: chimeric antibody h12C1 (antibody, V domains shown)
VH: QVQLQESGPELVKPGASVKISCKASGYSFSDYNMSWVKQSNGKSLEWIGIIDPKYGTINYNQKFKGKATLTVDQASSTAYMQLNSLTSEDSAVYYCVRDYYGSSYFDYWGQGTTLTVSS
VL: DIVLTQSPSSIYASLGERVTLTCKASQDIHNYLNWFQQKPGKSPKTLIYRANRLVDGVPSRFSGGGSGQDYSLTISSLEFEDIGIYYCLQYDEFPPTFGGGTRLEIK
notes: also called humanized 12C1; source: Expi293, purified (MabSelect SuRe, SEC); copies: 2 + 2
B2: mAb 1E6 (human) (antibody, V domains shown)
VH: EVQLVQSGAEVKKPGSSVKVSCKASGGTVIDYPITWVRQAPGQGLEWVGGFVPLFRTSNYGQKFQGRVTITADKSTSTASMELNSLTSEDTAIYYCARGDTAMGPFDYWGQGTLVTVSS
VL: SYVLTQPPSLSVAPGKTATLTCGGNNIAGKTVHWYQQRPGQAPVLVISYDSDRPSGIPERFSGSNSANTATLTISRVEAGDEADYYCQVWDRNSDHWVFGGGTKLTVL
notes: source: Expi293, purified (MabSelect SuRe, SEC); copies: 2 + 2

Tests used:
Assay in all cases: BLI
Details in all cases: both partners purified
[1] = molecular target: T1, fHbp m001768
[2] = molecular target: T2, fHbp m001720
[3] = molecular target: T3, fHbp m002414
[4] = molecular target: T4, fHbp m002256
[5] = molecular target: T5, fHbp m002336
[6] = molecular target: T6, fHbp m001177
[7] = molecular target: T7, fHbp m002404
[8] = molecular target: T8, fHbp m001672
[9] = molecular target: T9, fHbp m002281

| Binder | Kd [1] [nM] | koff [1] [s⁻¹] | kon [1] [M⁻¹ s⁻¹] | Kd [2] [nM] | koff [2] [s⁻¹] | kon [2] [M⁻¹ s⁻¹] | Kd [3] [nM] | koff [3] [s⁻¹] | kon [3] [M⁻¹ s⁻¹] | Kd [4] [nM] | koff [4] [s⁻¹] | kon [4] [M⁻¹ s⁻¹] | Kd [5] [nM] | koff [5] [s⁻¹] | kon [5] [M⁻¹ s⁻¹] | Kd [6] [nM] | koff [6] [s⁻¹] | kon [6] [M⁻¹ s⁻¹] | Kd [7] [nM] | koff [7] [s⁻¹] | further results |
| --- | --- | --- | --- | --- | --- | --- | --- | --- | --- | --- | --- | --- | --- | --- | --- | --- | --- | --- | --- | --- | --- |
| B1 | 5.51 | 0.000453 | 82200 ± 1160 | 1.04 | 0.000368 | 354900 ± 1290 | 66.4 | 0.00858 | 129000 ± 5630 | 43.6 | 0.0102 | 235000 ± 5060 | 47.1 | 0.01231 ± 0.000116 | 261000 ± 9540 | 92.7 | 0.02257 ± 0.000177 | 244000 ± 9380 | 125 | 0.01534 ± 0.000107 | kon [7]: 123000 ± 5460 M⁻¹ s⁻¹; Kd [8]: 117 nM; koff [8]: 0.01791 ± 0.000106 s⁻¹; kon [8]: 154000 ± 3920 M⁻¹ s⁻¹; Kd [9]: 34.9 nM; koff [9]: 0.0105 s⁻¹; kon [9]: 300000 ± 6700 M⁻¹ s⁻¹ |
| B2 | 0.538 | 0.000175 | 325000 ± 2320 | 0.788 | 0.000292 | 370200 ± 1240 | 1.09 | 0.000223 | 205200 ± 950 | 0.23 | 0.000106 | 460600 ± 4450 | < 0.001 | < 1e-07 | 676300 ± 4120 | 0.609 | 0.000279 | 457500 ± 1660 | 0.429 | 0.000144 | kon [7]: 336700 ± 1540 M⁻¹ s⁻¹; Kd [8]: 1 nM; koff [8]: 0.00032 s⁻¹; kon [8]: 320000 ± 1490 M⁻¹ s⁻¹; Kd [9]: 0.217 nM; koff [9]: 0.0001 s⁻¹; kon [9]: 462500 ± 3370 M⁻¹ s⁻¹ |
